In patent publication US6951917:

Target: HLA-DR on 1088-EBV cells (autologous EBV-B cells of patient 1088) (human)
Experiment: cell-based or functional assay

- inhibition of GM-CSF secretion by CD4+ TIL 1088 stimulated with 1088-EBV pulsed with autologous melanoma lysate (mAb 23 ug/ml): 96%
B1: monoclonal antibody L243 (anti-HLA-DR; IgG2a) (antibody, from another filing, V domains shown)
VH: QIQLVQSGPELKKPGETVKISCKASGFTFTNYGMNWVKQAPGKGLKWMGWINTYTREPTYADDFKGRFAFSLETSASTAYLQINNLKNEDTAKYFCARDITAVVPTGFDYWGQGTTLTVSS
VL: DIQMTQSPASLSVSVGETVTITCRASENIYSNLAWYRQKQGKSPQLLVFAASNLADGVPSRFSGSGSGTQYSLKINSLQSEDFGDYYCQHFWTTPWAFGGGTNLEIKR
